Tested on: ADAR1 KO FLAG-ZBP1 MEFs
Assay: Cytokine-induced ZBP1-dependent cell death in ADAR1-deficient MEFs
Type: cell-based, murine
Conditions: cytokines 100 ng/mL, viability at 48 hours
Excerpt: Immortalized Zbp1^−/− stably reconstituted with FLAG-ZBP1 MEFs were transiently transfected with TrueGuide Synthetic sgRNA against mouse Adar1 (ThermoFisher Scientific, CRISPR162007 SGM) and TrueCut Cas9 Protein (ThermoFisher Scientific, A36499) by Lipofectamine CRISPRMAX Cas9 Transfection Reagent (ThermoFisher Scientific, CMAX00008). After two days, cells were harvest and examined ADAR1 protein level by western blot.

Molecule	ZBP1-dependent cell death in ADAR1-deficient MEFs
TNFα	not
IFNγ: inflammatory cytokine of the tested panel (protein, UniProt P01579 24-161, looked up) Interferon gamma: QDPYVKEAENLKKYFNAGHSDVADNGTLFLGILKNWKEESDRKIMQSQIVSFYFKLFKNFKDDQSIQKSVETIKEDMNVKFFNSNKKKRDDFEKLTNYSVTDLNVQRKAIHELIQVMAELSPAAKTGKRKRSQMLFRG	induced ZBP1-dependent cell death
IL-1α: inflammatory cytokine of the tested panel (protein, UniProt P01583 113-271, looked up) Interleukin-1 alpha: SAPFSFLSNVKYNFMRIIKYEFILNDALNQSIIRANDQYLTAAALHNLDEAVKFDMGAYKSSKDDAKITVILRISKTQLYVTAQDEDQPVLLKEMPEIPKTITGSETNLLFFWETHGTKNYFTSVAHPNLFIATKQDYWVCLAGGPPSITDFQILENQA	not
TRAIL: inflammatory cytokine of the tested panel (protein, UniProt P50591 1-281, looked up) Tumor necrosis factor ligand …: MAMMEVQGGPSLGQTCVLIVIFTVLLQSLCVAVTYVYFTNELKQMQDKYSKSGIACFLKEDDSYWDPNDEESMNSPCWQVKWQLRQLVRKMILRTSEETISTVQEKQQNISPLVRERGPQRVAAHITGTRGRSNTLSSPNSKNEKALGRKINSWESSRSGHSFLSNLHLRNGELVIHEKGFYYIYSQTYFRFQEEIKENTKNDKQMVQYIYKYTSYPDPILLMKSARNSCWSKDAEYGLYSIYQGGIFELKENDRIFVSVTNEHLIDMDHEASFFGAFLVG	not

— patent US20260000643A1, “Combination Of Curaxins And Immune Checkpoint Inhibitors For Treating Cancer” (Institute For Cancer Research d/b/a The Research Institute …, priority 2022, published 2026)
